Data reported in patent US20060019320A1, “Wnt mediated erbb signalling, compositions and uses related thereto” (priority 2002, published 2006).
Values belong to the molecule of their own block, whether it stands above or below them.

Legend:
ErbB1 = target: T1, ErbB1 (Mus musculus, UniProt Q01279); assay: ErbB1 immunoprecipitation and phosphotyrosine immunoblot in HC11 cells; assay type: cell-based; settings: HC11 cells, 100 ng/ml EGF for 10 minutes
T1 construct: ErbB1 was immunoprecipitated from 500 micrograms WCL and immunoblotted with a phosphotyrosine specific antibody; endogenous in cells; host or cells: HC11 mammary cells (C-HC11, Wnt1-HC11, Wnt5a-HC11)
Procedure: ErbB1 is transactivated by many classes of membrane proteins (Carpenter, 1999; Gschwind et al., 2001). However, Wnt/VFz-mediated activation of ErbB1 has not been reported previously. Since ErbB1 tyrosine phosphorylation is an essential step in ErbB1 activation, we examined whether Wnt can activate ErbB1, by immunoprecipitating the receptor form Wnt/HC11 cells and performing a Westem analysis with phosphotyrosine specific antiserum. For these experiments HC11 cells were grown over night in medium without EGF. As a control for ErbB1 activation, C-HC 11 and Wnt-HC11 cells were treated for 10 minutes with 100 ng/ml EGF. An ErbB1 selective kinase inhibitor PKI166 (Traxler et al., 2001) was also used in some experiments. For this, the cells were pretreated 1 hr with 5 microM PKI 166, or left untreated, before preparing WCLs, essentially as described in Example 1.
ErbB1 was immunoprecipitated from 500 micrograms WCL and immunoblotted with a phosphotyrosine specific antibody (anti-phosphotyrosine AG10, Upstate Biotechnology) essentially as described previously (Lane et al., 2000). Membranes were stripped by placing them in 2% SDS, 62.5 mM Tris pH 6.8, 100 mM beta-mercaptoethanol at 60° C. for 30 min. Stripped membranes were reprobed for ErbB1 using a commercially available antibody (antibody 1005,Santa Cruz Biotechnology). […]

cyclin D1 = assay: Cyclin D1 immunoblot in HC11 cells; assay type: cell-based, mouse; settings: control (C-HC11) cells treated 6 hr
Procedure: Briefly, WCL was prepared from HC11, Wnt1- and Wnt5a-expressing HC11 cells and 50 μg immunoblotted essentially as described above using commercially available antibodies against cyclin D1 (NovaCastra) or cyclin D2 (SantaCruz). Both Wnt1- and Wnt5a-HC11 cells express higher levels of cyclin D1, in comparison to HC11 cells. In addition, Wnt1-HC11 cells but not C- or Wnt5a-HC11 cells express cyclin D2.
C-HC11 cells were also treated 6 hrs with CM from Wnt-HC11 cells. WCL were prepared and 50 μg was immunoblotted for Cyclin D1 or Cyclin D2. Similar to the results with the Wnt-HC11 cell lines, both Wnts (CM) stimulated Cyclin D1 expression, while only Wnt1 enhanced cyclin D2 levels.
To assess the contribution of Wnt-transactivated ErbB1 on cyclin D1 and D2 expression, C- and Wnt-HC11 cells were treated 6 hr with PKI166 or CGS27023A or EGF. […] In contrast, the ErbB1 inhibitor had no effect on cyclin D2 levels. […] Thus, cyclin D1 and cyclin D2 are differentially controlled. Both Wnt1 and Wnt5a transactivate ErbB1, which results in increased expression of cyclin D1; in contrast cyclinD2 is only elevated in Wnt1 expressing cells and this is independent of ErbB1 activity.

ERK1/2 = assay: phospho-ERK1/2 immunoblot (MAPK activity) in HC11 cells; assay type: cell-based, mouse
Text: The MAPK and PI3K pathways are major signaling cascades downstream of activated ErbB receptors (Olayioye et al., 2000). Antisera specific for the active, phosphorylated forms of ERK1/2 and PKB, the major kinases on the respective pathways, were used to probe for their activity. 50 micrograms of WCL were immunoblotted essentially as described above with the exception that a phospho-ERK1/2 antibody (commercially available, New England Biolabs) or a phosphoPKB antibody was used. Membranes were stripped and reprobed for ERK1/2 (anti-p44/42 ERK, New England Biolabs).
Briefly, conditioned media (CM) from Wnt-HC11 cells prepared as described in Example 1 was tested for its effect on ErbB1 and MAPK activity, essentially as described above. Treatment of C-HC11 cells for 10 min with Wnt1- and Wnt5a-CM stimulated phospho-ERK1/2 levels 5-6-fold, whereas CM from C-HC11 cells had no effect.
To rule out the potential involvement of ErbB1 ligands in mediating the effects of Wnt-containing CM, we used secreted Frizzled-related protein-1 (sFRP-1), which binds Wnt preventing it from binding Fz (Uren et al., 2000). […]
The metalloproteinase inhibitors were next tested in the presence of Wnt-containing CM. […] Phospho-ERK1/2 levels were determined as above. […]

ErbB1 phosphorylation (ErbB1): strong increase
B1: EGF: an ErbB1 activator, used as control for ErbB1 activation (protein, UniProt P01133 23-1207, looked up)
Pro-epidermal growth factor: PQHWSCPEGTLAGNGNSTCVGPAPFLIFSHGNSIFRIDTEGTNYEQLVVDAGVSVIMDFHYNEKRIYWVDLERQLLQRVFLNGSRQERVCNIEKNVSGMAINWINEEVIWSNQQEGIITVTDMKGNNSHILLSALKYPANVAVDPVERFIFWSSEVAGSLYRADLDGVGVKALLETSEKITAVSLDVLDKRLFWIQYNREGSNSLICSCDYDGGSVHISKHPTQHNLFAMSLFGDRIFYSTWKMKTIWIANKHTGKDMVRINLHSSFVPLGELKVVHPLAQPKAEDDTWEPEQKLCKLRKGNCSSTVCGQDLQSHLCMCAEGYALSRDRKYCEDVNECAFWNHGCTLGCKNTPGSYYCTCPVGFVLLPDGKRCHQLVSCPRNVSECSHDCVLTSEGPLCFCPEGSVLERDGKTCSGCSSPDNGGCSQLCVPLSPVSWECDCFPGYDLQLDEKSCAASGPQPFLLFANSQDIRHMHFDGTDYGTLLSQQMGMVYALDHDPVENKIYFAHTALKWIERANMDGSQRERLIEEGVDVPEGLAVDWIGRRFYWTDRGKSLIGRSDLNGKRSKIITKENISQPRGIAVHPMAKRLFWTDTGINPRIESSSLQGLGRLVIASSDLIWPSGITIDFLTDKLYWCDAKQSVIEMANLDGSKRRRLTQNDVGHPFAVAVFEDYVWFSDWAMPSVMRVNKRTGKDRVRLQGSMLKPSSLVVVHPLAKPGADPCLYQNGGCEHICKKRLGTAWCSCREGFMKASDGKTCLALDGHQLLAGGEVDLKNQVTPLDILSKTRVSEDNITESQHMLVAEIMVSDQDDCAPVGCSMYARCISEGEDATCQCLKGFAGDGKLCSDIDECEMGVPVCPPASSKCINTEGGYVCRCSEGYQGDGIHCLDIDECQLGEHSCGENASCTNTEGGYTCMCAGRLSEPGLICPDSTPPPHLREDDHHYSVRNSDSECPLSHDGYCLHDGVCMYIEALDKYACNCVVGYIGERCQYRDLKWWELRHAGHGQQQKVIVVAVCVVVLVMLLLLSLWGAHYYRTQKLLSKNPKNPYEESSRDVRSRRPADTEDGMSSCPQPWFVVIKEHQDLKNGGQPVAGEDGQAADGSMQPTSWRQEPQLCGMGTEQGCWIPVSSDKGSCPQVMERSFHMPSYGTQTLEGGVEKPHSLLSANPLWQQRALDPPHQMELTQ
modifications: Pro-epidermal growth factor
cyclin D1 expression (cyclin D1): stimulate
ERK1/2 phosphorylation (ERK1/2; C-HC11 cells, EGF 10 minutes in the presence of sFRP1): able to induce

B2: sFRP1: secreted Frizzled-related protein-1, binds Wnt preventing it from binding Fz; used as CM from sFRP1-producing HEK293 cells (protein, UniProt Q8N474 32-314, looked up)
Secreted frizzled-related …: SEYDYVSFQSDIGPYQSGRFYTKPPQCVDIPADLRLCHNVGYKKMVLPNLLEHETMAEVKQQASSWVPLLNKNCHAGTQVFLCSLFAPVCLDRPIYPCRWLCEAVRDSCEPVMQFFGFYWPEMLKCDKFPEGDVCIAMTPPNATEASKPQGTTVCPPCDNELKSEAIIEHLCASEFALRMKIKEVKKENGDKKIVPKKKKPLKLGPIKKKDLKKLVLYLKNGADCPCHQLDNLSHHFLIMGRKVKSQYLLTAIHKWDKKNKEFKNFMKKMKNHECPTFQSVFK
Wnt1 and Wnt5a CM-induced increase of phospho-ERK1/2 levels (ERK1/2; C-HC11, CM from sFRP1-producing 293 cells premixed 1:1 with Wnt-containing CM, 10 min): prevented
